The source of these data is EP1233271A1 (Huber, Lukas, dated 2002).

This experiment addresses T1, GST (UniProt P08515 1-218 = GST).
T1 construct: Negative control of the pull-down; also called GST alone
As to the kind of experiment: GST pull-down on GSH-sepharose, immunoblot.

T1 sequence (P08515 whole entry): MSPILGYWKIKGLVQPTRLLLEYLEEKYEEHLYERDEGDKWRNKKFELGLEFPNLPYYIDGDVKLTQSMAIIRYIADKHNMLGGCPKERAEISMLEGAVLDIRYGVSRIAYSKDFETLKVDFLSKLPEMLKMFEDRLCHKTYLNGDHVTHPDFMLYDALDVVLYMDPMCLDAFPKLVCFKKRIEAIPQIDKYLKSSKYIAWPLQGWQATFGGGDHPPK

B1: His6-T7-tagged MP1 (other, UniProt O88653 1-124, looked up)
chain: MADDLKRFLYKKLPSVEGLHAIVVSDRDGVPVIKVANDSAPEHALRPGFLSTFALATDQGSKLGLSKNKSIICYYNTYQVVQFNRLPLVVSFIASSSANTGLIVSLEKELAPLFEELIKVVEVS
notes: Recombinant, in bacterial lysate; also called His6-T7-MP1; not shown: N-terminal His6-T7 tag from vector pET28 (Novagen)
As for B1, the binding result is recorded as “no binding”.
